One molecule from paper PMC3475183 (Cell, 2011) can be followed below.

The target of the assay is 3BP2 Tankyrase targeting peptide. Kind of assay: fluorescence polarisation.

B1: recombinant N-terminal region of TNKS2 containing all five ARCs (domain or fragment)
chain: AVEPAARELFEACRNGDVERVKRLVTPEKVNSRDTAGRKSTPLHFAAGFGRKDVVEYLLQNGANVQARDDGGLIPLHNACSFGHAEVVNLLLRHGADPNARDNWNYTPLHEAAIKGKIDVCIVLLQHGAEPTIRNTDGRTALDLADPSAKAVLTGEYKKDELLESARSGNEEKMMALLTPLNVNCHASDGRKSTPLHLAAGYNRVKIVQLLLQHGADVHAKDKGDLVPLHNACSYGHYEVTELLVKHGACVNAMDLWQFTPLHEAASKNRVEVCSLLLSYGADPTLLNCHNKSAIDLAPTPQLKERLAYEFKGHSLLQAAREADVTRIKKHLSLEMVNFKHPQTHETALHCAAASPYPKRKQICELLLRKGANINEKTKEFLTPLHVASEKAHNDVVEVVVKHEAKVNALDNLGQTSLHRAAYCGHLQTCRLLLSYGCDPNIISLQGFTALQMGNENVQQLLQEGISLGNSEADRQLLEAAKAGDVETVKKLCTVQSVNCRDIEGRQSTPLHFAAGYNRVSVVEYLLQHGADVHAKDKGGLVPLHNACSYGHYEVAELLVKHGAVVNVADLWKFTPLHEAAAKGKYEICKLLLQHGADPTKKNRDGNTPLDLVKDGDTDIQDLLRGDAALLDAAKKGCLARVKKLSSPDNVNCRDTQGRHSTPLHLAAGYNNLEVAEYLLQHGADVNAQDKGGLIPLHNAASYGHVDVAALLIKYNACVNATDKWAFTPLHEAAQKGRTQLCALLLAHGADPTLKNQEGQTPLDLVSADDVSALLTAAMPP
Turning to B1, the dissociation constant Kd is 500 ± 100 nM.
